According to article PMC10725505, “Molecular forms of BMP15 and GDF9 in mammalian species that differ in litter size” (Scientific Reports, 2023):

Tests used:
[1] = biological target: recombinant pig BMP15 (pig); test: cross-linking; recombinant HEK-293 conditioned media (positive control lanes); 2 mM BS3, room temperature, 30 min; reducing SDS-PAGE; Western blot with Mab61A (BMP15) or Mab37A (GDF9)
[2] = biological target: native red deer GDF9 (red deer (endogenous in red deer oocytes)); test: cross-linking; oocyte lysates of sheep, red deer and pig; 2 mM BS3, room temperature, 30 min, reducing SDS-PAGE, beside non-reducing and reducing lanes without cross-linker; Western blot with Mab61A or Mab37A
[3] = biological target: recombinant pig GDF9 (pig) (UniProt Q6GUA6); test: cross-linking; recombinant HEK-293 conditioned media (positive control lanes); 2 mM BS3, room temperature, 30 min; reducing SDS-PAGE; Western blot with Mab61A (BMP15) or Mab37A (GDF9)
recombinant ovine GDF9 = biological target: T1, recombinant ovine GDF9 (sheep (ovine), UniProt O77681 319-453); test: SPR; ProteOn XPR36; biotinylated hBMPR2 captured (~200 RU) on a streptavidin-coated GLC chip; log2 serial dilutions of partially purified (dialysed, concentrated) 293H-secreted GDF9 or BMP15 as analytes; 25 °C, 100 µl/min; 10 mM HEPES, 500 mM NaCl, 3.4 mM EDTA, 0.005% Tween 20; association 120 s; analyte concentrations not known; conditions: one partner purified
T1 construct: also called recovGDF9; sheep GDF9; source: 293H-secreted media, dialysed and concentrated (partially purified)
T1 sequence (looked up): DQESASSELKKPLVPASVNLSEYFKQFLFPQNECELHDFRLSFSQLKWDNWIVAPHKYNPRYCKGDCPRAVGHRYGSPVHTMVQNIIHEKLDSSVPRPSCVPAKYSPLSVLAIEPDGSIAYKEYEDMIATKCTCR

For recombinant pig BMP15 (ligand), the stoichiometry N [1] was 2.

native red deer GDF9 (natural protein) gave a stoichiometry N [2] of 2.

“recombinant pig GDF9 (from UniProt Q6GUA6 1-444) (ligand)” showed a stoichiometry N [3] of 2.

B1: recombinant human (h)BMPR2 ectodomain (receptor, UniProt Q13873 27-151, looked up)
chain: SQNQERLCAFKDPYQQDLGIGESRISHENGTILCSKGSTCYGLWEKSKGDINLVKQGCWSHIGDPQECHYEECVVTTTPPSIQNGTYRFCCCSTDLCNVNFTENFPPPDTTPLSPPHSFNRDETI
modifications: N-biotinylated using EZ-Link sulfo-NHS-LC-biotin (1:1.2 molar ratio)
notes: human BMPR2, extracellular domain, amino acids 27 to 151; captured on a streptavidin-coated sensor chip by its biotin; also called hBMPR2 ectodomain protein; Type 2 receptor; source: baculoviral infected Sf9 insect cells, purified
B1 gave a Kd (recombinant ovine GDF9) of ~1 nM.
